# Legend:
# [1] = biological target: HA-tagged KMT2D (full length, wild type) (UniProt O14686)
# HA-tagged KMT2D S1331A = HA-tagged KMT2D S1331A (UniProt O14686)
# [2] = biological target: V5-tagged KMT2D fragment (1222-1819) (UniProt O14686)
# Sequence of recombinant His-AKT (MRC-PPU Reagents DU1850) (P31749 whole entry): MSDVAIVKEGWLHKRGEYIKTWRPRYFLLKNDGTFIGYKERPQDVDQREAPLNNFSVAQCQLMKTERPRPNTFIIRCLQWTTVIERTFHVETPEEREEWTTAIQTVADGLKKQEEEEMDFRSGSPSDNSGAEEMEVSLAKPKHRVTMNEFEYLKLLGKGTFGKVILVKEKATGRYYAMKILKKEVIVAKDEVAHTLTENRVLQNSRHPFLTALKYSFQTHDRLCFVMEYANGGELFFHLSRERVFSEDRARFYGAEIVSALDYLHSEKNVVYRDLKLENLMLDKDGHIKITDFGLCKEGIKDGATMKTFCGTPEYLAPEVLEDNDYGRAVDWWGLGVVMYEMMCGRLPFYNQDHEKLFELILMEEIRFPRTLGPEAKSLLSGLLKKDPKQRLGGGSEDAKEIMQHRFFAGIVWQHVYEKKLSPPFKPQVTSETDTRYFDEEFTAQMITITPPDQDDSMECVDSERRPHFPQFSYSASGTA
substance,measurement,setting,value
recombinant His-AKT (MRC-PPU Reagents DU1850),in vitro kinase assay; phosphorylation detected by phospho-RXRXX(S/T) and phospho-KMT2D (S1331) antibodies,[1],The kinase assay confirmed the ability of AKT to directly phosphorylate S1331
same,in vitro kinase assay; phosphorylation detected by phospho-RXRXX(S/T) and phospho-KMT2D (S1331) antibodies,HA-tagged KMT2D S1331A,Mutation of serine to alanine (S1331A) completely abrogated the ability of AKT to phosphorylate KMT2D in vitro
same,in vitro kinase assay with the KMT2D (1222-1819) fragment as substrate (FIG. 11C),[2],The kinase assay confirmed the ability of AKT to directly phosphorylate S1331

# — US20190270997
